Results published in patent US11078246B2, “Peptides binding to Bfl-1” (Dana-Farber Cancer Institute, Inc., priority 2015, dated 2021).
Positions count from the first letter of the chain named. Starred links: 1 amine or outer side, 2 acyl side, 3 side chain; linkers in the order of their positions; H or OH if unused. Positions of bridges follow the written chain, without caps; N, C: chain ends. Non-standard residues stand in square brackets, D forms with d. Residues, ends and D or L forms follow the SMILES beside them. No end group written: not given here. *: point of attachment. Nip(3R) = O=C([C@@H]1CCCN([*:1])C1)[*:2]; S5 = C=CCCC[C@](C)(N)C(=O)O; code J = not defined here; Acryloyl = C=CC(=O)*

What was measured:
BFL-1ΔC [1] = experiment: Covalent conjugation assay of warhead-bearing SAHBs; assay type: binding, human
Description: For warhead-bearing SAHBs, His-BFL-1ΔC C4S/C19S protein was pretreated with 10 mM DTT in 50 mM Tris pH 8.0, 100 mM NaCl for 30 min at RT (final volume, 9.5 μL), and then combined with a 10:1 molar ratio of NOXA SAHBA or BIM SAHBA peptides bearing warheads 1-8 (final volume, 10 μL) for an additional 2 h incubation at RT. Processing for gel electrophoresis and Coomassie staining was performed as above.

MCL-1ΔNΔC = target: T1, MCL-1ΔNΔC (Homo sapiens, UniProt Q07820); experiment: as above; assay type: binding
T1 construct: MCL-1ΔNΔC (aa 170-327) and BCL-XLΔC (aa 1-212) constructs were cloned into pGEX-4T-1; GST (N, cleaved yes); made in house; host or cells: Escherichia coli BL21(DE3)
Description: Processing for gel electrophoresis and Coomassie staining was performed as above.

BCL-XLΔC = target: T2, BCL-XLΔC (Homo sapiens, UniProt Q07817); experiment: as above; assay type: binding
T2 construct: MCL-1ΔNΔC (aa 170-327) and BCL-XLΔC (aa 1-212) constructs were cloned into pGEX-4T-1; GST (N, cleaved yes); made in house; host or cells: Escherichia coli BL21(DE3)

BFL-1ΔC [2] = target: T3, BFL-1ΔC (Homo sapiens, UniProt Q16548); experiment: Liposomal release assay with SAHBA-3/BFL-1ΔC conjugates; assay type: biochemical; conditions: BFL-1ΔC covalently conjugated to the peptide, 1.5 μM
T3 construct: cDNA encoding BFL-1ΔC (aa 1-153) was cloned into the pET19b expression vector; made in house; host or cells: Escherichia coli BL21(DE3) LOBSTR
T3 sequence (Q16548 1-153): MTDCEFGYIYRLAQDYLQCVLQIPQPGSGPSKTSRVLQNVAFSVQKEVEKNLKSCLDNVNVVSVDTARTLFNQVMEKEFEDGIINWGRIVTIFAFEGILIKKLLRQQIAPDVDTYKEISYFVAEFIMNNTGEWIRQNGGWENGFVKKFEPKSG
Description: Streptavidin Pull-down: Recombinant His-BFL-1ΔC, BCL-XLΔC (tagless) and GST-MCL-1ΔNΔC (1 μM each) were combined and reduced with 3 mM DTT in PBS for 30 min at RT, and then incubated with 1 μM biotinylated SAHBA, SAHBA-3 or vehicle for 4 h at RT. The mixtures were then combined with PBS-washed high-capacity SA agarose (Thermo Fisher Pierce) and incubated with rotation for 2 h at RT. The beads were centrifuged at 3000 rpm, washed twice with NP-40 lysis buffer (1% NP40, 50 mM Tris pH 8.0, 100 mM NaCl, 2.5 mM MgCl2), once with PBS, and then bound protein eluted by boiling in 10% SDS containing 10 mg/mL biotin. […]
Large unilamellar vesicles (LUVs) with encapsulated ANTS and DPX were generated and purified as described (Leshchiner et al., 2013; Lovell et al., 2008). The indicated combinations of BAX (400 nM), tBID (40 nM), and BFL-1ΔC or SAHBA-3/BFL-1ΔC conjugates (1.5 μM), were added to liposomes (5 μL) in 384 well plates (final volume, 30 μL), and released fluorophore was measured over 120 min using an M1000 Infinite plate reader (Tecan) with excitation and emission wavelengths of 355 nm and 520 nm, respectively. […] Percent ANTS/DPX release was calculated as [(F−F0)/(F100−F0)]×100, where F0 is baseline fluorescence at time 0, F is the fluorescence recorded for each time point, and F100 is the maximum amount of ANTS/DPX release based on liposomal treatment with 1% Triton X-100.

HA-BFL-1ΔC C4S/C19S = target: T4, HA-BFL-1ΔC C4S/C19S (Homo sapiens, UniProt Q16548, C19S/C4S); experiment: Crosslinking in lysates of transfected 293T cells; assay type: binding; conditions: 293T lysate
T4 construct: cDNA encoding BFL-1ΔC (aa 1-153) was cloned into the pET19b expression vector; expressed in transfected cells; host or cells: 293T
T4 sequence (Q16548 1-153 C4S/C19S): T3 sequence (Q16548 1-153) with C4S, C19S
Description: 293T cells were maintained in DMEM containing 10% FBS and penicillin/streptomycin, and transfections performed with 2 μg pCMV plasmid containing HA-BFL-1ΔC C4S/C19S using X-tremeGENE 9 (Roche). For lysate experiments, cells were trypsinized 24 hours post-transfection, washed with PBS, and lysed by incubation with 1% CHAPS lysis buffer (150 mM NaCl, 50 mM Tris pH 7.4, 100 mM DTT). Protein concentration of the soluble fraction was measured using a BCA kit according to manufacturer's instructions (Thermo Scientific). […] Samples were then boiled in LDS buffer and subjected to western analysis using 1:1000 dilutions of HA (Sigma-Aldrich. #12CA5) and biotin (Abcam, #53494) antibodies. To evaluate the capacity of biotinylated SAHBs to compete with tBID for interactions with BFL-1 and MCL-1, 293T cells were transfected with either HA-BFL-1ΔC C4S/C19S or FLAG-MCL-1 in the p3XFLAG-CMV-10 vector (Sigma) as above. After 24 h, cells were trypsinized, washed with PBS, lysed in 1% CHAPS buffer, and the supernatant collected for protein concentration determination by BCA kit. […] The mixtures were then subjected to HA or FLAG (Sigma-Aldrich, F7425) immunoprecipitation, followed by western analysis using 1:1000 dilutions of HA, FLAG, biotin, and BID (Santa Cruz sc-11423) antibodies. […] Cells were harvested and lysed as above, and incubated overnight with anti-HA agarose beads (Pierce). […]

His-BFL-1ΔC = target: T5, His-BFL-1ΔC (Homo sapiens, UniProt Q16548); experiment: Streptavidin pull-down from anti-apoptotic protein mixture; assay type: binding; conditions: 1:1:1:1 mixture, 1 μM each, biotinylated SAHB; relative to SAHB without warhead
T5 construct: cDNA encoding BFL-1ΔC (aa 1-153) was cloned into the pET19b expression vector; made in house; host or cells: Escherichia coli BL21(DE3) LOBSTR
T5 sequence (Q16548 1-153): T3 sequence (Q16548 1-153)
Description: (§1) Streptavidin Pull-down: Recombinant His-BFL-1ΔC, BCL-XLΔC (tagless) and GST-MCL-1ΔNΔC (1 μM each) were combined and reduced with 3 mM DTT in PBS for 30 min at RT, and then incubated with 1 μM biotinylated SAHBA, SAHBA-3 or vehicle for 4 h at RT. The mixtures were then combined with PBS-washed high-capacity SA agarose (Thermo Fisher Pierce) and incubated with rotation for 2 h at RT. The beads were centrifuged at 3000 rpm, washed twice with NP-40 lysis buffer (1% NP40, 50 mM Tris pH 8.0, 100 mM NaCl, 2.5 mM MgCl2), once with PBS, and then bound protein eluted by boiling in 10% SDS containing 10 mg/mL biotin. Inputs (10%) and eluates were electrophoresed on a 12% Bis-Tris gel and then subjected to silver stain and imaging.

GST-MCL-1ΔNΔC = target: T6, GST-MCL-1ΔNΔC (Homo sapiens, UniProt Q07820); experiment: as above; assay type: binding; conditions: 1:1:1:1 mixture, 1 μM each, biotinylated SAHB
T6 construct: MCL-1ΔNΔC (aa 170-327) and BCL-XLΔC (aa 1-212) constructs were cloned into pGEX-4T-1; made in house; host or cells: Escherichia coli BL21(DE3)
Description: as §1

A375P cells = experiment: Cellular uptake by ImageXpress Micro epifluorescence microscopy; assay type: cell-based, human; conditions: FITC-labeled peptides, 4 h; data not shown
Description: Confocal Microscopy: A375P cells were plated in chambered coverglass (1.5×10^4 cells/well) and cultured as above. […] Cells were washed, stained with MitoTracker Red (Thermo), Hoescht 33342, and imaged live. Confocal images were collected with a Yokogawa CSU-X1 spinning disk confocal (Andor Technology) mounted on a Nikon Ti-E inverted microscope (Nikon Instruments). Images were acquired using a 100×1.4 NA Plan Apo objective lens with an Orca ER CCD camera (Hamamatsu Photonics) and 488 nm laser. Acquisition parameters, shutters, filter positions and focus were controlled by Andor iQ software (Andor Technology). […] Data were collected for five sites per well at 20× magnification, with each treatment performed in triplicate, and then analyzed and quantified using MetaXpress software. […] A custom module in MetaXpress was applied to incrementally recede the CMDR image mask from the cellular border, further restricting the analyzed FITC signal to internalized peptide. The measurement of Total Internalized Fluorescence Intensity (TIFI) represents the level of absolute fluorescence detected per cell, per peptide construct. Maximum and minimum thresholding was utilized to exclude FITC and Cy5 outliers that were much larger and brighter than average, and total intensity and average intensity per cell thresholds were set such that vehicle-treated cells scored negative by the analysis.

A375P melanoma cells = experiment: Cell viability (CellTiter-Glo); assay type: cell-based, human; conditions: 40 μM, over time
Description: Cell Viability, LDH Release, and Caspase-3/7 Activation Assays: Cancer cells were cultured using their standard culture media containing 10% FBS and penicillin/streptomycin (A375P: DMEM; SK-MEL-2, SK-MEL-28 and MCF-7: EMEM: A549, H929: RPMI). […] Cell viability and caspase 3/7 activation was measured using CellTiter-Glo and Caspase-Glo 3/7 chemiluminescence reagents (Promega), respectively, and luminescence detected by a microplate reader (Spectramax M5, Molecular Devices). LDH release was quantified after 30 min peptide incubation by plate centrifugation at 1500 rpm for 5 min at 4° C., transfer of 100 μL cell culture media to a clear plate (Corning), incubation with 100 μL LDH reagent (Roche) for 30 min while shaking, and measurement of absorbance at 490 nm on a Spectramax M5 microplate reader. Mitochondrial Cytochrme c Release and Biotinylation Assays: A375P cells were plated in 6-well Corning plates (3×10^5 cells/well) and cultured as above. […] Briefly, pelleted cells were resuspended at 1×10^7 cells/mL in permeabilization buffer (20 mM HEPES/KOH pH 7.5, 250 mM sucrose, 50 mM KCl, 2.5 mM MgCl2) supplemented with 0.025% digitonin and protease inhibitors, followed by incubation on ice for 10 min and centrifugation at 13,000 g.

[3] = test system: mouse embryonic fibroblasts (MEFs); experiment: Cellular uptake by ImageXpress Micro epifluorescence microscopy; assay type: cell-based; conditions: FITC-labeled peptides, 4 h; data not shown

T6 sequence (Q07820 170-327, stated change not applied): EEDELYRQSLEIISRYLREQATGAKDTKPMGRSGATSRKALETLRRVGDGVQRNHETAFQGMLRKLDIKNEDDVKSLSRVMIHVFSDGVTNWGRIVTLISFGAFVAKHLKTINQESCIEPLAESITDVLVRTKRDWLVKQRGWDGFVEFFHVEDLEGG
T1 sequence (Q07820 170-327, stated change not applied): as above
T2 sequence (Q07817 1-212, stated change not applied): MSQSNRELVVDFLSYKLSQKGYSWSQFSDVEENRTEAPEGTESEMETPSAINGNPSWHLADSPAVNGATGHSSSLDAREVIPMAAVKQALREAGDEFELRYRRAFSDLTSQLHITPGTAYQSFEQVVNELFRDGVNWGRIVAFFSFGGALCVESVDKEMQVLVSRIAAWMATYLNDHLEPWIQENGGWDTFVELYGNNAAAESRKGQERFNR

Compound: NOXA SAHBA-3: NOXA SAHBA (aa 21-43) capped at L21 with D-nipecotic acid acrylamide warhead 3; JEVESATQLRXFGDXLNFRQKLL (SEQ ID NO:24) ([code J]EVESATQLR[S5]FGD[S5]LNFRQKLL; staple 11-15; reading uncertain)
- reactivity with BFL-1 constructs WT, C4S/C19S, C55S, C4S/C19S/C55S (BFL-1ΔC [1]): exclusive reactivity with the WT and BFL-1 C4S/C19S constructs
- reactivity with MCL-1ΔNΔC (MCL-1ΔNΔC): did not react
- reactivity with BCL-XLΔC (BCL-XLΔC): did not react
- BFL-1ΔC suppression of tBID-triggered BAX-mediated liposomal release (BFL-1ΔC [2]): the inhibitory function of BFL-1 was lost
- reactivity with other lysate proteins (biotin western) (HA-BFL-1ΔC C4S/C19S): little to no non-specific reactivity
- molecular weight shift of HA-BFL-1ΔC C4S/C19S (anti-HA western) (HA-BFL-1ΔC C4S/C19S; biotinylated peptide 10 μM, 2 h): prominent molecular weight shifts
- BFL-1ΔC engagement in SA pull-down (His-BFL-1ΔC): notably more
- MCL-1ΔNΔC engagement in SA pull-down (GST-MCL-1ΔNΔC): relatively less

Compound: C=CC(=O)N1CCC[C@@H](C(=O)N[C@H](C(=O)N[C@@H](C)C(=O)N[C@@H](CCC(N)=O)C(=O)N[C@@H](CCC(=O)O)C(=O)N[C@@H](CC(C)C)C(=O)N[C@@H](CCCNC(=N)N)C(=O)N[C@@]2(C)CCCC=CCCC[C@@](C)(C(=O)N[C@@H](Cc3ccccc3)C(=O)N[C@@H](CC(N)=O)C(=O)N[C@@H](C)C(=O)N[C@@H](Cc3ccc(O)cc3)C(=O)N[C@@H](Cc3ccc(O)cc3)C(=O)N[C@@H](C)C(=O)N[C@@H](CCCNC(=N)N)C(=O)N[C@@H](CCCNC(=N)N)C(N)=O)NC(=O)[C@H](CC(=O)O)NC(=O)CNC(=O)[C@H]([C@@H](C)CC)NC2=O)[C@@H](C)CC)C1 [BIM SAHBA-3] (Acryloyl-[Nip(3R)]IAQELR[S5]IGD[S5]FNAYYARR-NH2; staple 8-12; N-terminus and C-terminus assumed)
- cellular uptake (A375P cells): equivalent cellular uptake
- cytotoxicity compared to BIM SAHBA1 (A375P melanoma cells): significant enhancement in cytotoxicity over time
- cellular uptake [3]: equivalent cellular uptake
